Experimental data taken from the supplement of paper PMC10065799, “High-throughput profiling of sequence recognition by tyrosine kinases and SH2 domains using bacterial peptide display” (eLife, 2023).

target: Hck (UniProt P08631); assay: phosphorylation enrichment, bacterial display (enrichment ratio); higher = better substrate or ligand; peptides without Tyr show the background
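Note: 11-residue human phosphosite peptides and single-mutation variants displayed on the E. coli surface, counted by deep sequencing, each peptide's frequency after selection divided by its frequency in the unselected input library; frequency after pTyr selection over input frequency; kinase dosed for 20-30% of maximal phosphorylation in three min.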

Chain of Hck (P08631 whole entry, looked up): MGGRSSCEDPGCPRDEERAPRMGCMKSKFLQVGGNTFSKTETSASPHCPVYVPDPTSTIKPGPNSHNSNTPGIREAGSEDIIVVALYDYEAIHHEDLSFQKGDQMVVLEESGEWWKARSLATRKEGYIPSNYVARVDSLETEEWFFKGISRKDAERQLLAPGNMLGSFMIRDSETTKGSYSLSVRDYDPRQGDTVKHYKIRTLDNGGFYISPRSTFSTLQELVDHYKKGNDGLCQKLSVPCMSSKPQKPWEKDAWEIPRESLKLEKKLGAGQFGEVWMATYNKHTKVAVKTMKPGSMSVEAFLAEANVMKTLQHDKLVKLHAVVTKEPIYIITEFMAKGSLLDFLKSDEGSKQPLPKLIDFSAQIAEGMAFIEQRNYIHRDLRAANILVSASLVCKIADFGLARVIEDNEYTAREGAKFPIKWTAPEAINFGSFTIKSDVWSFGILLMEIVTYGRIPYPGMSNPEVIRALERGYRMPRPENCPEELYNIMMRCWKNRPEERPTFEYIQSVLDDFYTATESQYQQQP

In order of rising phosphorylation enrichment:
1. LLREWYVQDPY [SIX3_Y225_L226V]  0.328
2. KVKPIYLHTQG [AR_Y916_F917L]  0.39
3. TTKAKYKTPTF [PLD2_Y573_YF]  0.4
4. TGDFGYRAPGF [TNS2_Y668_YF]  0.409
5. KRGASYILKLA [SERPINB1_Y84]  0.414
6. SIKDKYLTALF [KCNH2_Y611_V612L_YF]  0.414
7. YVKEPYIQSRF [HIPK4_Y175]  0.416
8. IRRIAYEFVEM [ADA_Y84_K80R]  0.433
9. MHDSNCVSKGS [PDGFRA_Y849_Y849C]  0.456
10. VGGRIYIDDAL [PKLR_Y218_G222A]  0.486
11. FEEDSYVKRSQ [RET_Y905_YF]  0.487
12. DPLLTYRFPPN [LMNA_Y481_K486N]  0.503
13. VAFVYYKSIGP [ADGRL4_Y302]  0.524
14. NARGLYFKLHN [GATA2_Y376_C373R_YF]  0.53
15. ISTAGYSIPEL [EDAR_Y406]  0.534
16. RFLRGYHQDAY [HLA-A_Y137_R138H]  0.538
17. SGSIHYSCVPR [GLB1_Y57_R59C]  0.54
18. ADMETYLLEKS [MYH7_Y266_I263M]  0.549
19. HPAGNYSLSSV [ARFGAP3_Y473_Q468H]  0.553
20. DAAEDYAEGVC [DHODH_Y194_R199C]  0.559
21. AEEKEYHAEEG [EGFR_Y869_G873E]  0.573
22. SLTGAYASGIP [POM121C_Y378_T379A]  0.575
23. FTNRNYDLDYD [MYC_Y12]  0.594
24. VDEERYDIEGK [TNNI3_Y112_A116G]  0.623
25. ICGVSYDEYRY [CFTR_Y512_F508C]  0.633
26. PTKNDYWAMLA [WWOX_Y287]  0.705
27. PVADPYDQSFE [MAPK14_Y323]  0.989
28. TSIGNYYKPWF [DHCR24_Y299_N294T]  1.03
29. EEGNPYYSSTR [MCCC2_Y520_A524T]  1.25
30. VNFDFYTVNLG [GFPT1_Y367_D366Y_YF]  1.81
31. FQNSLYAPDFS [FAM92A_Y226_R222Q_YF]  2.12
32. DVYVSYDYGKS [SORL1_Y139]  4.33
33. AHPIIYDIIEA [PYKtide_D_2014]  8.25

target: Jak2 (UniProt O60674); assay: as above
Sequence (O60674 whole entry, looked up): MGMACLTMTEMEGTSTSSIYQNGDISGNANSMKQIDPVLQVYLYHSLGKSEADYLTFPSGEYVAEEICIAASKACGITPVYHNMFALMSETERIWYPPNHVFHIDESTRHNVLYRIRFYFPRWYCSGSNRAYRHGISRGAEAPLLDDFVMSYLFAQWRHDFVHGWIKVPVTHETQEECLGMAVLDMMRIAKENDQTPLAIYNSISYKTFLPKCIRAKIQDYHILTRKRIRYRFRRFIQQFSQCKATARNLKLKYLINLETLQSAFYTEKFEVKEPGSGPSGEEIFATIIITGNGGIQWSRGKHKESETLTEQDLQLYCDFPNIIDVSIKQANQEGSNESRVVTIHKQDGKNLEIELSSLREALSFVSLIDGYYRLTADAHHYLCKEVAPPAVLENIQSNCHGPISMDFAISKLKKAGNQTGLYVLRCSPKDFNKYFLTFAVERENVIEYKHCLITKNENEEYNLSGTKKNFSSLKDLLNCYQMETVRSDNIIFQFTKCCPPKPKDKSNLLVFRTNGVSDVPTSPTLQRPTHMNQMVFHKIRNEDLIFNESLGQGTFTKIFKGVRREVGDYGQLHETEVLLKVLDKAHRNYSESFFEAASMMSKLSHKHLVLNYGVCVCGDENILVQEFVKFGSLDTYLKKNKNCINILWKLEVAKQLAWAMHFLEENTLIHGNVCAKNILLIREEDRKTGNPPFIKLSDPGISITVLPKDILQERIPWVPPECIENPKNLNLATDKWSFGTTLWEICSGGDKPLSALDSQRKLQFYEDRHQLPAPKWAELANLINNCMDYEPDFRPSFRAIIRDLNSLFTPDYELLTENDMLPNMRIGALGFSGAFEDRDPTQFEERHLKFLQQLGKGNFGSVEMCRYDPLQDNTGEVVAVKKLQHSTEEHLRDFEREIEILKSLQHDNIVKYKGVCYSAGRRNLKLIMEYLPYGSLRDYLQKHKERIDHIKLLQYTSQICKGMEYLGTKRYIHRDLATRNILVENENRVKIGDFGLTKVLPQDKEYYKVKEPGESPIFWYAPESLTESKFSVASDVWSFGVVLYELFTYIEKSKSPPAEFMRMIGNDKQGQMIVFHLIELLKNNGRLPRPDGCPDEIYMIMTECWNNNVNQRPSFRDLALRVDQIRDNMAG

In order of rising phosphorylation enrichment:
1. TTKAKYKTPTF [PLD2_Y573_YF]  0.416
2. YVKEPYIQSRF [HIPK4_Y175]  0.507
3. KVKPIYLHTQG [AR_Y916_F917L]  0.61
4. IRRIAYEFVEM [ADA_Y84_K80R]  0.638
5. SIKDKYLTALF [KCNH2_Y611_V612L_YF]  0.665
6. HPAGNYSLSSV [ARFGAP3_Y473_Q468H]  0.672
7. MHDSNCVSKGS [PDGFRA_Y849_Y849C]  0.683
8. EEGNPYYSSTR [MCCC2_Y520_A524T]  0.693
9. TGDFGYRAPGF [TNS2_Y668_YF]  0.724
10. ISTAGYSIPEL [EDAR_Y406]  0.745
11. VGGRIYIDDAL [PKLR_Y218_G222A]  0.767
12. DPLLTYRFPPN [LMNA_Y481_K486N]  0.768
13. DVYVSYDYGKS [SORL1_Y139]  0.795
14. LLREWYVQDPY [SIX3_Y225_L226V]  0.798
15. FEEDSYVKRSQ [RET_Y905_YF]  0.881
16. SLTGAYASGIP [POM121C_Y378_T379A]  0.904
17. AHPIIYDIIEA [PYKtide_D_2014]  0.949
18. KRGASYILKLA [SERPINB1_Y84]  0.952
19. ADMETYLLEKS [MYH7_Y266_I263M]  0.983
20. AEEKEYHAEEG [EGFR_Y869_G873E]  1.01
21. SGSIHYSCVPR [GLB1_Y57_R59C]  1.06
22. FQNSLYAPDFS [FAM92A_Y226_R222Q_YF]  1.08
23. PTKNDYWAMLA [WWOX_Y287]  1.12
24. DAAEDYAEGVC [DHODH_Y194_R199C]  1.19
25. VNFDFYTVNLG [GFPT1_Y367_D366Y_YF]  1.23
26. ICGVSYDEYRY [CFTR_Y512_F508C]  1.26
27. RFLRGYHQDAY [HLA-A_Y137_R138H]  1.28
28. VDEERYDIEGK [TNNI3_Y112_A116G]  1.3
29. VAFVYYKSIGP [ADGRL4_Y302]  1.3
30. FTNRNYDLDYD [MYC_Y12]  1.3
31. NARGLYFKLHN [GATA2_Y376_C373R_YF]  1.67
32. PVADPYDQSFE [MAPK14_Y323]  2.29
33. TSIGNYYKPWF [DHCR24_Y299_N294T]  11.5

target: MERTK (UniProt Q12866); assay: as above
Sequence (Q12866 whole entry, looked up): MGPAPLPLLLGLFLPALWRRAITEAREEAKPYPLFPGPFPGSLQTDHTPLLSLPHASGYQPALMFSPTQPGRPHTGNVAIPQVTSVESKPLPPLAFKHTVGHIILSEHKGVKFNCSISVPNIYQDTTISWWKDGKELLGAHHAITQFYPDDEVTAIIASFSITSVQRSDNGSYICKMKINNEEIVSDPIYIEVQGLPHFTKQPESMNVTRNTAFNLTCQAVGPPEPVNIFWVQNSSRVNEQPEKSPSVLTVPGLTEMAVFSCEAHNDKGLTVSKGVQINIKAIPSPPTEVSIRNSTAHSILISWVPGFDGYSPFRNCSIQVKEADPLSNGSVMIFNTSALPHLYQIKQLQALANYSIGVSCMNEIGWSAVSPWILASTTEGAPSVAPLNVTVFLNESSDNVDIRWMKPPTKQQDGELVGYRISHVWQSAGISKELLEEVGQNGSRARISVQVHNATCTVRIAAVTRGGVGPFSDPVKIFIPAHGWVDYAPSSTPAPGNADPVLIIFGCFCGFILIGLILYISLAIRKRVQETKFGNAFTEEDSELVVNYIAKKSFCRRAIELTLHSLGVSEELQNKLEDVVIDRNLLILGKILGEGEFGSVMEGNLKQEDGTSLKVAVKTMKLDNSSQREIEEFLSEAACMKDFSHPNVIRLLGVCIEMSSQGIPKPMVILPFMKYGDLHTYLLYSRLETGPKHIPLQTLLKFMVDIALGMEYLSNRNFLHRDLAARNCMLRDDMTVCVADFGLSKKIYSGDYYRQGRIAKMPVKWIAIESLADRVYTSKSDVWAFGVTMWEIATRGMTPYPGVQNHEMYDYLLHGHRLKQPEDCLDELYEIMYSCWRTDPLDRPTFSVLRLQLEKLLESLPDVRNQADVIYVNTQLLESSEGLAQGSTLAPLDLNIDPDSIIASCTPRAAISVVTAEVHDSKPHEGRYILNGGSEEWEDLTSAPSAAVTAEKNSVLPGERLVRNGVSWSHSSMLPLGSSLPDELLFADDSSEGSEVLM

In order of falling phosphorylation enrichment:
1. TSIGNYYKPWF [DHCR24_Y299_N294T]  10.1
2. AHPIIYDIIEA [PYKtide_D_2014]  9.44
3. FQNSLYAPDFS [FAM92A_Y226_R222Q_YF]  7.8
4. DVYVSYDYGKS [SORL1_Y139]  4.1
5. VNFDFYTVNLG [GFPT1_Y367_D366Y_YF]  1.97
6. PVADPYDQSFE [MAPK14_Y323]  0.894
7. RFLRGYHQDAY [HLA-A_Y137_R138H]  0.795
8. ISTAGYSIPEL [EDAR_Y406]  0.713
9. HPAGNYSLSSV [ARFGAP3_Y473_Q468H]  0.625
10. FTNRNYDLDYD [MYC_Y12]  0.58
11. TGDFGYRAPGF [TNS2_Y668_YF]  0.542
12. KVKPIYLHTQG [AR_Y916_F917L]  0.54
13. YVKEPYIQSRF [HIPK4_Y175]  0.53
14. SGSIHYSCVPR [GLB1_Y57_R59C]  0.517
15. DPLLTYRFPPN [LMNA_Y481_K486N]  0.497
16. DAAEDYAEGVC [DHODH_Y194_R199C]  0.492
17. VDEERYDIEGK [TNNI3_Y112_A116G]  0.491
18. NARGLYFKLHN [GATA2_Y376_C373R_YF]  0.476
19. IRRIAYEFVEM [ADA_Y84_K80R]  0.469
20. ICGVSYDEYRY [CFTR_Y512_F508C]  0.463
21. ADMETYLLEKS [MYH7_Y266_I263M]  0.447
22. AEEKEYHAEEG [EGFR_Y869_G873E]  0.445
23. PTKNDYWAMLA [WWOX_Y287]  0.443
24. VAFVYYKSIGP [ADGRL4_Y302]  0.442
25. LLREWYVQDPY [SIX3_Y225_L226V]  0.44
26. SLTGAYASGIP [POM121C_Y378_T379A]  0.436
27. EEGNPYYSSTR [MCCC2_Y520_A524T]  0.428
28. KRGASYILKLA [SERPINB1_Y84]  0.421
29. FEEDSYVKRSQ [RET_Y905_YF]  0.417
30. SIKDKYLTALF [KCNH2_Y611_V612L_YF]  0.408
31. VGGRIYIDDAL [PKLR_Y218_G222A]  0.402
32. MHDSNCVSKGS [PDGFRA_Y849_Y849C]  0.384
33. TTKAKYKTPTF [PLD2_Y573_YF]  0.374

system: c-Abl (mouse); assay: as above

In order of rising phosphorylation enrichment:
1. YVKEPYIQSRF [HIPK4_Y175]  0.457
2. SIKDKYLTALF [KCNH2_Y611_V612L_YF]  0.468
3. IRRIAYEFVEM [ADA_Y84_K80R]  0.489
4. TTKAKYKTPTF [PLD2_Y573_YF]  0.551
5. MHDSNCVSKGS [PDGFRA_Y849_Y849C]  0.559
6. FEEDSYVKRSQ [RET_Y905_YF]  0.645
7. SLTGAYASGIP [POM121C_Y378_T379A]  0.647
8. DPLLTYRFPPN [LMNA_Y481_K486N]  0.649
9. EEGNPYYSSTR [MCCC2_Y520_A524T]  0.67
10. LLREWYVQDPY [SIX3_Y225_L226V]  0.674
11. FTNRNYDLDYD [MYC_Y12]  0.713
12. KVKPIYLHTQG [AR_Y916_F917L]  0.736
13. VGGRIYIDDAL [PKLR_Y218_G222A]  0.737
14. VNFDFYTVNLG [GFPT1_Y367_D366Y_YF]  0.762
15. FQNSLYAPDFS [FAM92A_Y226_R222Q_YF]  0.781
16. KRGASYILKLA [SERPINB1_Y84]  0.802
17. AEEKEYHAEEG [EGFR_Y869_G873E]  0.84
18. ADMETYLLEKS [MYH7_Y266_I263M]  0.864
19. HPAGNYSLSSV [ARFGAP3_Y473_Q468H]  0.867
20. VDEERYDIEGK [TNNI3_Y112_A116G]  0.896
21. NARGLYFKLHN [GATA2_Y376_C373R_YF]  0.896
22. SGSIHYSCVPR [GLB1_Y57_R59C]  0.898
23. VAFVYYKSIGP [ADGRL4_Y302]  0.907
24. DAAEDYAEGVC [DHODH_Y194_R199C]  0.917
25. PTKNDYWAMLA [WWOX_Y287]  0.939
26. ICGVSYDEYRY [CFTR_Y512_F508C]  0.943
27. RFLRGYHQDAY [HLA-A_Y137_R138H]  0.984
28. TGDFGYRAPGF [TNS2_Y668_YF]  1.02
29. DVYVSYDYGKS [SORL1_Y139]  1.03
30. ISTAGYSIPEL [EDAR_Y406]  1.46
31. PVADPYDQSFE [MAPK14_Y323]  2.38
32. AHPIIYDIIEA [PYKtide_D_2014]  5.89
33. TSIGNYYKPWF [DHCR24_Y299_N294T]  14.6
